Assay results as given in paper PMC3462482 (Nature structural & molecular biology, 2012).

Target: T1, PatGmac H618A (Prochloron sp., UniProt Q52QJ1 492-851, H618A)
T1 sequence: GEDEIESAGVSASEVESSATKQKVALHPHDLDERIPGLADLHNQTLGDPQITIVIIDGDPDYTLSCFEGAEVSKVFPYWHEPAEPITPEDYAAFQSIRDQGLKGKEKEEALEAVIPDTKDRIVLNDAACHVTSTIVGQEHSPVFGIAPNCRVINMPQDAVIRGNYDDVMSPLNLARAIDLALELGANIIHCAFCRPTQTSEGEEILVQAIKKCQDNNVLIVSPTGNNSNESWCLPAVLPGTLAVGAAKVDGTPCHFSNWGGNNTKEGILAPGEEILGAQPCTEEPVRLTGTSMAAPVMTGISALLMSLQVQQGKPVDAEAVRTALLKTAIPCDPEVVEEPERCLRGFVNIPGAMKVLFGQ
Assay: crystal structure

Q: Does VPAPIPFPAYDG [VPAPIPFPAYDG peptide (substrate mimic)] bind?
A: Result: binds
